Data from patent US5523287A, “Thrombin-inhibitory protein from assassin bugs” (BASF Aktiengesellschaft, priority 1991, dated 1996).

How the values were obtained:
[1] = Determination of the isoelectric point by isoelectric focusing; assay type: physicochemical; conditions: Ampholine PAGplate pH 3.5-9.5, located by thrombin inhibition assay
Procedure: The determination was carried out with an LKB Multiphor 2117 (horizontal system) and an LKB 2103 power supply. Precast gels were employed (Pharmacia Ampholine PAGplate pH 3.5-9.5). The standard proteins employed were amyloglucosidase, pH 3.5; soybean trypsin inhibitor, pH 4.55; β-lactoglobulin A, pH 5.2; bovine carbonic anhydrase, pH 5.85; human carbonic anhydrase, pH 6.55; horse myoglobin, pH 6.85 and 7.35; lentil lectin, pH 8.15, 8.45, 8.65 and trypsinogen, pH 9.3.
Focusing conditions: 1500 volts, 30 watts. Buffers:
cathode 1M sodium hydroxide solution
The plates were prefocused for 30 minutes to produce a pH gradient. The samples were loaded onto filter disks which lay on the gel. Focusing was continued for 30 minutes, the filter disks were removed and, after a further 30 minutes, focusing was stopped. The gels were immediately cut into 2 mm slices and transferred into distilled water. The protein eluted out of the gel slices overnight. The location of the thrombin inhibitor was determined by a thrombin inhibition assay. The pH can also be determined directly using a pH electrode.

Thrombin [2] = test: Binding to affinity column with immobilized thrombin; conditions: immobilized thrombin on Sepharose
Procedure: The combined active fractions were loaded onto an affinity column with immobilized thrombin (diameter 1.5 cm, height 6.5 cm, volume 11.5 ml, 60 ml/h). The column was prepared as in Example 3.
The column was equilibrated with 20 mM sodium phosphate pH 7.5. After the protein solution had been loaded onto the column it was washed with 10 column volumes of equilibration buffer until the absorption at 280 nm decreased to zero.
It was then washed with 0.5M NaCl, 20 mM sodium phosphate buffer pH 7.5. This removed non-specifically adsorbed material.
Protein specifically bound to thrombin was eluted with 0.1M glycine, 0.5M NaCl pH 2.8. The column was then immediately readjusted to pH 7.5 with phosphate buffer.
2 g of CNBr-activated Sepharose (Pharmacia) were washed with 200 ml of 1 mM HCl on a suction funnel. The gel was taken up in 100 mM NaHCO3, 500 mM NaCl pH 8.3 and immediately mixed with 10,000 units of thrombin (Sigma) in 100 mM NaHCO3, 500 mM NaCl, pH 8.3.
The solution was gently shaken at 4° C. for 24 hours.
The gel material was allowed to settle and then washed with 100 mM NaHCO3, 500 mM NaCl, pH 8.3. The Sepharose was then incubated with 100 mM NaHCO3, 500 mM NaCl, 1M ethanolamine pH 8.3 for 2 hours.
To remove unbound thrombin, before use the gel material is washed once more in the column with 20 column volumes of PBS pH 7.4.

Thrombin [3] = test: Determination of the inhibition of thrombin by the inhibitor (Chromozym TH optical assay); assay type: biochemical; conditions: in vitro enzyme assay
Procedure: The purification of the protein can be monitored by a thrombin activity assay. It is expedient to use an optical assay in which a chromogenic substrate, for example Chromozym T, is converted by thrombin. The fractions containing the novel protein can be identified by their thrombin-inhibiting action on addition to this optical assay.
Thrombin (Boehringer Mannheim) was dissolved to a final concentration of 25 mU/ml in phosphate-buffered saline (PBS) ([…], […], 0.144 g/l sodium phosphate, 0.2 g/l potassium phosphate, pH 7.5).
Chromozym TH (Boehringer Mannheim) was dissolved in 20 ml of H2 O per vial.
50 μl of thrombin solution and 100 μl of Chromozym plus 25 μl of sample or buffer were placed in the wells of a microtiter plate. The absorption at 405 nm was measured at 37° C. immediately thereafter at time 0 and after 30 minutes.
When the sample was deeply colored another control without thrombin was treated as described above.
The activity of thrombin liberates a dye which absorbs at 405 nm from the chromogenic substrate. Inhibition of the thrombin by a thrombin inhibitor is evident from a smaller increase in the absorption at 405 nm and was quantified using a calibration plot.

Molecule	isoelectric point [1]	binding to thrombin affinity column (Thrombin [2])	inhibition of the biological activity of thrombin (Thrombin [3])	isoelectric point ([1]; listed as novel inhibitor)
hirudin [reference compound]	≤ 3.5 pH	–	–	–
novel protein: Thrombin-inhibitory protein isolated from assassin bugs (Rhodnius prolixus); contains 103 amino acids of SEQ ID NO: 3, N-terminus SEQ ID NO: 1 (protein) EGGEPCACPHALHRVCGSDGETYSNPCTLNCAKFNGKPELVKVHDGPCEPDEDEDVCQECDGDEYKPVCGSDDITYDNNCRLECASISSSPGVELKHEGPCRT	3.7-4.7 pH	binds specifically to a thrombin affinity column	inhibits the biological activity of thrombin	4.2±0.5 pH
